Data from patent US20060073571A1.

Molecular target: recombinant chimeric hLH-R-hCG-β fusion protein (full-length human lutropin hormone receptor, Arg-Ser linker, full-length human chorionic gonadotropin-β) (human)
Test: cell-based or functional assay

recombinant chimeric hLH-R-hCG-β fusion protein (full-length human lutropin hormone receptor, Arg-Ser linker, full-length human chorionic gonadotropin-β) (human), sequence (chain, as listed by the source mutant limits assumed): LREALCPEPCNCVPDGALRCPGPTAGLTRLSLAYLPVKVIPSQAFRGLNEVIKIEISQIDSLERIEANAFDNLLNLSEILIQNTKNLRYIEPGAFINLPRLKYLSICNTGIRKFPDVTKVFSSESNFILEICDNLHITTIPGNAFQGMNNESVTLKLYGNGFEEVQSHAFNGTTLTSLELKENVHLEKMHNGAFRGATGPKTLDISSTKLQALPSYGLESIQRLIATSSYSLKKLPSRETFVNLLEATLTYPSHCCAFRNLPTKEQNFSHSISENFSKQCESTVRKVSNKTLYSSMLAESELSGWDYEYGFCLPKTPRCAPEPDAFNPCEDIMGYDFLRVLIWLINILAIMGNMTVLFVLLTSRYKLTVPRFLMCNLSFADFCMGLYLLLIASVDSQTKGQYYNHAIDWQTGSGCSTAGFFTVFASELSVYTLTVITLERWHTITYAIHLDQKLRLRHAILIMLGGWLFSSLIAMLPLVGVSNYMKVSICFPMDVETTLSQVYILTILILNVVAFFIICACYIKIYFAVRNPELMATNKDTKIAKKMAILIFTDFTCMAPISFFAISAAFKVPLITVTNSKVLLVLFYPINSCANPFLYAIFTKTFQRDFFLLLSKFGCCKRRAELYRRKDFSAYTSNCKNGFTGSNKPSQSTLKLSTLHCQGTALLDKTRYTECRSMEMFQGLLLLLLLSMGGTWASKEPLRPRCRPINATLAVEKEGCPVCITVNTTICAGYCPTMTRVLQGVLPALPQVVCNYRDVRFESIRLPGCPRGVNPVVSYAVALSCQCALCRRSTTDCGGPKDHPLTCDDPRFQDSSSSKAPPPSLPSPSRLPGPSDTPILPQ

intracellular cAMP in transfected Sf9 cells in the absence of hCG: 13.2 pmol/L
Substance: hCG-β component of the chimeric hLH-R-hCG-β protein (full-length human chorionic gonadotropin-β subunit) (from UniProt P0DN86 21-165) (ligand)
